From the supplement of paper PMC12042874
± gives the uncertainty stated by the source.

Assay: amyloid nucleation score (Sup35N fusion, yeast selection) (log enrichment); library NNK3; higher = more nucleation; inactive = no reads after selection
How it was run: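 Libraries of peptides of 20 random codons fused to Sup35N were expressed in psi-negative yeast and induced 24 hours with 100 μM copper sulfate. Selection was 7 days at 30°C on medium lacking adenine and uracil, and plasmid inserts were Illumina-sequenced before and after selection. Nucleation score is the DiMSum log enrichment of output over input reads, centred on the mode score of non-aggregating sequences, and sequences with under 100 input reads were left out.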

Amyloid nucleation score, 2.31 ± 0.061:
SAYLELLLRSFAVICNLSLT

Amyloid nucleation score, 1.66 ± 0.084:
SCSWHFIFCCNGLHMSVKKR

Amyloid nucleation score, -0.029 ± 0.5:
RSRLCWED

Amyloid nucleation score, -0.474 ± 1.1:
SGDNMPAWVDHMSCHKRWSG

Amyloid nucleation score, -0.474 ± 1:
SCFSSYCRYNLRLSWRQNFV

Amyloid nucleation score, 1.26 ± 0.086:
SGNHLSWYGTIE

Amyloid nucleation score, -0.461 ± 0.96:
RVIRHPAI

Amyloid nucleation score, 1.33 ± 0.16:
SAGWMSTKVSVQLTNYPGLA

Amyloid nucleation score, 0.693 ± 0.16:
RRFVNVLGMHC

Amyloid nucleation score, -0.044 ± 0.39:
RSPEDFSGTCHAGRCSWVHG

Amyloid nucleation score, -0.43 ± 1.2:
SCGLLWCD

Amyloid nucleation score, 2.62 ± 0.063:
RSIITGVKVDLFNLAVTVFL

Amyloid nucleation score, -0.24 ± 1.1:
SAVRHRLWVVGLASTRLYEC

Amyloid nucleation score, -0.379 ± 0.84:
RVRVYYGQDWYYKMLLARTI

Amyloid nucleation score, 2.51 ± 0.082:
SFNNININIVVFNVAPFSVH

Amyloid nucleation score, 2.28 ± 0.052:
SFTNFFNGSVGICFRCTLMC

Amyloid nucleation score, 0.133 ± 0.98:
SCLRGNTAKFFSKVSRVCDK

Amyloid nucleation score, 1.81 ± 0.059:
RVCCVGYLSNLLTMKGTGID

Amyloid nucleation score, 0.239 ± 0.41:
RRVGSWTYVSFSDGI

Amyloid nucleation score, -0.301 ± 1:
SGGYDQSQALNRLVGWRVYC

Amyloid nucleation score, -0.514 ± 1.7:
RVIKVGHMFKWSRAVGGGKT

Amyloid nucleation score, 0.086 ± 0.66:
RYSYLGVCIKMSRKVKCVVT

Amyloid nucleation score, 1.49 ± 0.13:
RWCMVIDSTNWCSCDRKHGA

Amyloid nucleation score, inactive:
RRAMIGIFSITVRFADNGWK, RRFKQCNHILACR, RRLSSHLFMLWYMVR, RRMPLWEVGFSQASLTRQ, RRNHMEFWTCSKYPRGLCGI, RRVFHQAFSGWSDLCIQRSG, RRVLTARDWVCH, RRVMIALRYRRYGEFTEAYP, RRYEFLGGTEGSARRLDSKP, RRYYLRV, RSCSCLSRDKYNYLLIDSLV, RSDSADLIKG, RSDVI, RSELASLKGCDIELVFTYQR, RSFSLGRLSYYRGVTNILLA, RSIHYSYWCIYGNIRDTVRS, RSILLEGVLAFM, RSILVFHSDRLKYGYLMIDV, RSKSF, RSLFHSAFEFRFLGLTECTY, RSLFSISAVIEICMLWSV, RSMKLPAKTASLLH, RSMRSQSSLQAHQSIRSEGR, RSSSASR, RSSVYGQLILVPHYFDCLNL, RSVLLKVHTWITKSCFSTGL, RSVNGVTLGTARYHAVERVL, RSVQSVFNTIGCQTYVSPVW, RSWIGTKGPL, RSYGR, RTFVNGSAEYANASHWEYPN, RTFWNSYWTGMVLRADWIMR, RTLLGEEWLCSVEMEVVGGQ, RTLSNFSGKVVLLI, RTRFFSQFSSL, RTSVYAALSWGEAVLREVFE, RTVKNSRLGTMIVY, RTWDYVLLGLLLLDYYRILA, RTWIRAYVSMQFRMCQDTDV, RTWSAKGYDNIRDVGLNSES, RTYDVCQTRVCKRAKWEGDT, RTYMVII, RVFGCKKGGSRLW, RVHFVYIRWFYVRRDGWFSG, RVKASSFQISMMTDALKFWC, RVKRYSMELGIFLDLRVT, RVLGKRGGRKH, RVRIKTWYRMMGYMLCWCEL, RVTVPDVDCGKASWSPGKVC, RVYKSV, RWKMTCFSSYNG, RWSRGMVSNCRENATWYDAA, RWTNNRSEIGAPYGWPTAS, RYDLSVSIATMVNVYFLLRG, RYDTNSRVRIIVSNF, RYHYLSSLSMNVNTGELWMD, RYKAVRRKYPGCRLGWMRPL, RYKEFVGNSIRIPDTCLSCC, RYKGFINVLC, RYLLIPAVGLK, RYLPRTSFPTIL, RYTMAVWRLMSCNSVKSVAL, RYTWTTDYNVM, RYVLR, RYVRCNRMWIIDLDEHARGK, RYYNYVSHIPAHRAVTLSAT, RYYSDNDYAMQLLLEHTALY, SAIFDGEQERSRDMLL, SALPE, SASRKNNQDVCGNCAVVGEF, SAVSTRW, SAWVIIIMLARYVAIS, SAYSSGLRSKAYLYTASCTP, SAYSVHLSSVHFELVVET, SCAYGLGCMLMVKHN, SCDLFSC, SCECSSNMGEAFRKLVGTSA, SCFGECCI, SCGEYWPLLSFMNCWAP, SCGLGLLAVVEKCVVTHRFF, SCGTCKTSFIKR, SCIRNSLRLNSFSVFFLAFH, SCKFITFRGGQVQLVNDEGM, SCLFRILMQLSTTMNSSVFK, SCRLSISFTGAGNVRCAKMM, SCYDVFSFYPSPFCLTNSVA, SCYRVNLLGVYWRVMVDVLV, SDCCYRTYVEIQKWSLVF, SDCSIHKSGYVTDTACDVFD, SDDRIT, SDGHFLCV, SDITSHLRHSNASNGSWNWL, SEAMFSIVLKECNGGACR, SEARCA, SEASQRLLYTMVWTAHTQVM, SEFCSNFNQFGC, SELHRNRPTKLGFCRYESQV, SENICLYT, SETCWVIIYWYIGVKMFSRF, SEWKNTRNTHVLWYTSDSAT, SFERSSSSST, SFFLVSWLGALTVVIPVQ, SFFRNRGGEDFFISWWFENN, SFFVT, SFGILVYIRTAMPCTNIANY, SFGLWNLRTYTAVIASSWEL, SFGYLSAPRFIVGKVSHLGC, SFHASGQSSLYKKGDLSTCV, SFICGINNELVK, SFIKRVRDSMSRM, SFKSTSYIITFNWKIVAVWK, SFLARVFT, SFLPSNSFFKYQCVMWC, SFLSYCC, SFLYYRFVLVGIFLRVAGRF, SFNMDYHMWIEQGSRWVFTT, SFNSVDTRLWTVPRWERMVN, SFPASFSYRNGFVWLNFWVV, SFPFDLFGNIVW, SFRSAVRCTS, SFRSPMDIVLLFVMCSVLAR, SFVQEMGDPPYHKQSQQLRS, SFYMPTQKLMLFIVVKVKAT, SGEYSQRKGSCKGHNGSSRS, SGGLRLLGKSLLWTAVCTNT, SGGLSSLILSCFHIFIIKTY, SGPSGSRCGDITLDTPPVLL, SGRKR, SGSGFQLLDGLTTRFSVVTF, SGSNILMEWNCYRARLCRGS, SGSWHKH

Amyloid nucleation score, 2.41 ± 0.052:
SGIQVRGQTSIVLLNF

Amyloid nucleation score, 0.832 ± 0.23:
RVIMKIIVTFTA

Amyloid nucleation score, 0.277 ± 0.57:
SAYYCLCMLMGHHWGRNELY

Amyloid nucleation score, 2.64 ± 0.059:
SCFQQGNFWCSVFFNVGGQL

Amyloid nucleation score, -0.2 ± 1.2:
SFRGTSARYFMLVGVLGIFV
